Test [1] deals with T1, fibroblast activating protein alpha (FAPα), cell surface-bound on FAP+ cells (FAP over-expressing HT1080 … (human, UniProt Q12884 1-760)).
T1 construct: whole, on cells; Target of the flow cytometry and of the immunohistology; also called cell membrane expressed FAP
T1 sequence (looked up): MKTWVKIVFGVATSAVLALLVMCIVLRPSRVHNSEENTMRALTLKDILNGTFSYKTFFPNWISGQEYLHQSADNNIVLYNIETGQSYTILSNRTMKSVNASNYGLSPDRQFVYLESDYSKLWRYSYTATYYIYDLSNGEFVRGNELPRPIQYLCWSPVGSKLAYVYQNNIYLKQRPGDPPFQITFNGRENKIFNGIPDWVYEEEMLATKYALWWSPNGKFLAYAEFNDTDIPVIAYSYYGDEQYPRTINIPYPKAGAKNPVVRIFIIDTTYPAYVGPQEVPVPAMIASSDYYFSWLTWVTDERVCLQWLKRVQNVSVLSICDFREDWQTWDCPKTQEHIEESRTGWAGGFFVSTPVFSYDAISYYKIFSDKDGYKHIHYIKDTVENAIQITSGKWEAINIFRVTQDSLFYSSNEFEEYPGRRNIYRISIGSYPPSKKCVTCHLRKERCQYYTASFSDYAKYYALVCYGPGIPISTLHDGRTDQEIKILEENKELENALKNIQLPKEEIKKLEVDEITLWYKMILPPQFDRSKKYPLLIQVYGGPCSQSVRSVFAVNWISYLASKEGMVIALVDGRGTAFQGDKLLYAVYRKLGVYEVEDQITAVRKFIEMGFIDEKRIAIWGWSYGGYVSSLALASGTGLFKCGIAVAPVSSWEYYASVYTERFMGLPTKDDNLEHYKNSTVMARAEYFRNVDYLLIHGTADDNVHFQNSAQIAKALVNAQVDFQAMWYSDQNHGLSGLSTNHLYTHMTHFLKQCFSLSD
In words: flow cytometry saturation on FAP expressing HT1080 cells; SC50.

Test [2] addresses T1, fibroblast activating protein alpha …. In words: binding to FAP+ cells, cell analyser, half maximal saturation.
For test [3] the target is unchanged. In words: flow cytometry saturation on FAP-overexpressing cells; half maximal saturation.
In test [4] the target is T2, fibroblast activating protein alpha (FAPα), purified and immobilised (ELISA wells) (human, UniProt Q12884 27-760, limits assumed).
T2 construct: also called purified FAP; immobilized FAP
T2 sequence (looked up): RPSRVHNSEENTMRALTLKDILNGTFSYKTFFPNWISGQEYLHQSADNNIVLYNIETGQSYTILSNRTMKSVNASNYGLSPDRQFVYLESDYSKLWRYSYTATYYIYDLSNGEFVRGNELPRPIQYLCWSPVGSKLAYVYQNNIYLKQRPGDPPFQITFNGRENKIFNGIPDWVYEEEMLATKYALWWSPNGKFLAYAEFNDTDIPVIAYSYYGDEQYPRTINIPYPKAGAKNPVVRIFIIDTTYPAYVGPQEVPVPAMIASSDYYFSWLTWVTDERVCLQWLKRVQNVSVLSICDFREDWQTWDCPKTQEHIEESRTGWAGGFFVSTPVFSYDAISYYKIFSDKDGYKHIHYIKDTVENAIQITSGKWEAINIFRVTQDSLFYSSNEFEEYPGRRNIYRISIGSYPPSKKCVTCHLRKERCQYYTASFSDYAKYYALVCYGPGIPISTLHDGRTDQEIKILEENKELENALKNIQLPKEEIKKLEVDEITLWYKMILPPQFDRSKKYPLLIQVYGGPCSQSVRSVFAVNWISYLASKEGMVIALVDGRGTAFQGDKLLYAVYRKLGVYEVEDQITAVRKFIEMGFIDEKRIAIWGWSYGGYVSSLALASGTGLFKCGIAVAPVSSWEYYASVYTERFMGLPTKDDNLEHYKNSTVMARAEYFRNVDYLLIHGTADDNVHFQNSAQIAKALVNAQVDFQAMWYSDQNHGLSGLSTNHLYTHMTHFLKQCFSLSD
In words: sandwich ELISA, c-myc tag detection; SC50 = concentration of half maximal saturation of binding.

B1: scFv #34 (VH #34, IgG; VL III43; murine HCDR3 F19) (scFv)
scFv: QVQLQQSGAEVKKPGSSVKVSCKASGGTFSTHTINWVRQAPGQGLEWMGGIAPMFGTANYAQKFQGRVTITADKSTSTAYMEMSSLRSDDTAVYYCARRRIAYGYDEGHAMDYWGQGTLVTVSSASTKGPKLEEGEFSEARVDIQMTQSPSSLSASTGDRVTITCRASQDISSYLAWYQQAPGKAPHLLMSGATTLQTGVPSRFSGSGSGTDFTLTISSLQAEDVAVYYCQQYYRTPFTFGQGTKLEIKRTVAAPSVFAA
notes: Humanised monovalent scFv, detected through the c-myc tag with 9E10; also called clone #34; VH34YOL III43; not shown: c-myc and HIS6 tags (pOPE101), or pIII in the screening ELISA
For B1, the values for the EC50 in test [1] and in test [2] were 6 nM and roughly 6 nM, respectively.

B2: Mb #34 (minibody of scFv #34) (other)
chain: B1 scFv
notes: also called scFv #34-minibody; not shown: hinge-linker-CH3-cmyc-HIS6 of the minibody
In turn, B2 gave an EC50 in test [3] of 2 nM.

B3: scFv #13 in minibody format (bivalent) (other)
chain: QVQLVESGGTLVQPGGSLRLSCAASGFTFSSYAMSWIRQAPGKGLEWVSGISASGGYIDYADSVKGRVTISRDNSKNMAYLQMSSLRAEDTALYYCAKGGNYQMLLDHWGQGTLVTVSSASTKGPKLEEGEFSEARVDIQMTQSPSSLSASTGDRVTITCRASQDISSYLAWYQQAPGKAPHLLMSGATTLQTGVPSRFSGSGSGTDFTLTITSLQSEDFATYYCQQYYIYPPTFGQGTRVEIKRTVAAPSVFAA
notes: also called scFv #13 (as bivalent in minibody format); scFv #13 (minibody format); not shown: hinge-linker-CH3-cmyc-HIS6 of the minibody
With B3, the EC50 in test [2] is 8 to 12 nM.

B4: scFv #18 (VH #18, IgG; VL III43; murine HCDR3 F19) (scFv)
scFv: QVQLVQSGAELKKPGSSMKVSCKASGDTFSTYSINWVRQAPGQGLEWMGVINPSGGSTSYAQKFQGRVTMTRDTSTSTVYMELSSLRSEDTAVYYCARRRIAYGYDEGHAMDYWGQGTLVTVSSASTKGPKLEEGEFSEARVDIQMTQSPSSLSASTGDRVTITCRASQDISSYLAWYQQAPGKAPHLLMSGATTLQTGVPSRFSGSGSGTDFTLTISSLQAEDVAVYYCQQYYRTPFTFGQGTKLEIKRTVAAPSVFAA
notes: Humanised monovalent scFv, detected through the c-myc tag with 9E10; also called clone #18; VH18 YOL III43; not shown: c-myc and HIS6 tags (pOPE101), or pIII in the screening ELISA
Consider B4, for which the EC50 in test [1] is 6 nM; in test [2], roughly 6 nM.

B5: scFv F19 (parental murine scFv of the monoclonal antibody F19) (scFv, V domains shown)
VH: EVQLQQSGPELVKPGASVKMSCKTSRYTFTEYTIHWVRQSHGKSLEWIGGINPNNGIPNYNQKFKGRATLTVGKSSSTAYMELRSLTSEDSAVYFCARRRIAYGYDEGHAMDYWGQGTSVTVSS
VL: DIVMSQSPSSLAVSVGEKVTMSCKSSQSLLYSRNQKNYLAWFQQKPGQSPKLLIFWASTRESGVPDRFTGSGFGTDFNLTISSVQAEDLAVYDCQQYFSYPLTFGAGTKLELK
Consider B5, for which the EC50 in test [1] and in test [4] was 20 nM each time.

B6: chimeric scFv III43 (murine VH F19 / human VL III43) (scFv, V domains shown)
VH: B5 VH
VL: DIQMTQSPSSLSASTGDRVTITCRASQDISSYLAWYQQAPGKAPHLLMSGATTLQTGVPSRFSGSGSGTDFTLTISSLQAEDVAVYYCQQYYRTPFTFGQGTKLEIKR
B6 displayed an EC50 in test [4] of 20 nM.

B7: scFv #50 in minibody format (bivalent) (other)
chain: QVQLVESGGGLVQPGGSLRLSCAASGFTFSNYWMSWVRQAPGKGLEWVANIKQDGSEKYYVDSVKGRFTISRDNAKNSLYLQMNSLRAEDTAVYYCARGSLCTDGSCPTIGPGPNWGQGTLVTVSSAPTKAPKLEEGEFSEARVDIQMTQSPSSLSASTGDRVTITCRASQDISSYLAWYQQAPGKAPHLLMSGATTLQTGVPSRFSGSGSGTDFTLTITSLQSEDFATYYCQQYYIYPPTFGQGTRVEIKRTVAAPSVFAA
notes: Minibody: bivalent homodimeric scFv derivative; also called scFv #50 (as bivalent in minibody format); not shown: hinge-linker-CH3-cmyc-HIS6 of the minibody
Molecule B7 gave an EC50 in test [2] of 32 nM.
